# T1: human CD112R over-expressed on Jurkat cells (human, UniProt Q6DKI7 1-326)
# T1 construct: whole, on cells; also called Jurkat-CD112R OE; PVRIG
# T1 sequence (looked up): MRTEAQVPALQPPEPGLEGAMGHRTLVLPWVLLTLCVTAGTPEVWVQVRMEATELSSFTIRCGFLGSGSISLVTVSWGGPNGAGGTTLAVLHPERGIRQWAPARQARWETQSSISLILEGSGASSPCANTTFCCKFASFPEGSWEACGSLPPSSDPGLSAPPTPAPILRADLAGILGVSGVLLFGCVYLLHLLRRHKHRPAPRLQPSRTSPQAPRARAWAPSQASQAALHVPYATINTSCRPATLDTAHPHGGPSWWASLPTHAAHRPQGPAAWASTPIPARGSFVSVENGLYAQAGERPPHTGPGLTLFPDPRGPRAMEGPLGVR
# Tests used:
# [1] = target: T1, human CD112R over-expressed on Jurkat …; assay: flow cytometry on Jurkat cells over-expressing human CD112R, 0.63 ug/mL antibody
# Experimental: The ability of anti-CD112R antibodies to bind to CD112R expressed on cells was evaluated. 1×10⁵ Jurkat cells (acute T cell leukemia cell line, ATCC # TIB-152) that were either wild type or engineered to over-express human CD112R (Jurkat-CD112R OE) were added to each well of a 96-well V bottom plate and stained with either anti-CD112R antibodies or an IgG1 isotype control (0.63 μg/mL) for 1 hour at 4° C. Cells were washed twice with PBS+2% FCS and resuspended with Alexa Fluor® 647 anti-human IgG Fc antibody (Biolegend, Cat #409320) diluted 1:100 in PBS+2% FCS and incubated at 4° C. for 30 minutes. Cells were subsequently washed twice and resuspended in PBS+2% FCS. Cellular data was acquired using a LSRFortessa X-20 (BD Biosciences) and analyzed with FlowJo software (Tree Star).
# Results are depicted in FIG. 1. Quantitation of antibody binding to Jurkat-CD112R OE cells was assessed by the geometric mean fluorescent intensity (gMFI) of the Alexa Fluor® 647 signal.
# [2] = target: T2, mouse CD112R over-expressed on 293T cells (mouse); assay: flow cytometry on 293T cells over-expressing mouse CD112R
# T2 construct: whole, on cells; also called 293T.mCD112R; 293T-mouse CD112R
# Experimental: The ability of anti-CD112R antibodies to bind to mouse CD112R was evaluated on cells overexpressing mouse CD112R. 0.8×10⁵ 293T cells (ATCC CRL-3216) that were engineered to overexpress mouse CD112R (293T.mCD112R) were added to each well of a 96-well V bottom plate and stained with either anti-CD112R antibodies or an IgG1 isotype control at a starting concentration of […], with 3-fold serial dilutions for 30 minutes at 4° C. Cells were washed twice with PBS+2% FCS and resuspended with Alexa Fluor® 647 anti-human IgG Fc antibody (Biolegend, Cat #409320) diluted 1:100 in PBS+2% FCS and incubated at 4° C. for 20 minutes. Cells were subsequently washed twice and resuspended in PBS+2% FCS. Cellular data was acquired using a LSRFortessa X-20 (BD Biosciences) and analyzed with FlowJo software (Tree Star).
# Results are depicted in FIG. 17 and Table 11. Quantitation of antibody binding to 293T.mCD112R cells was assessed by the geometric mean fluorescent intensity (gMFI) of the Alexa Fluor® 647 signal.
Jurkat-CD112R over-expressed (OE) gMFI (fold increase over isotype) [1] [fold],293T-mouse CD112R gMFI (fold increase over isotype) [2] [fold],Binder
51.7,–,"Antibody 38 (antibody, V domains shown, Tested as IgG detected with anti-human IgG Fc, compared with an IgG1 isotype control; also called antibody clone number 38; clone 38) VH: EVQLLESGGGLVQPGGSLRLSCAASGFTFSGHLMSWVRQAPGKGLEWVSAISGSAGETYYADSVKGRFTISRDNSKNTLYLQMNSLRAEDTAVYYCARDAYYDDWSGWADWYFDLWGRGTLVTVSS VL: EIVLTQSPATLSLSPGERATLSCRASQSVSRYLAWYQQKPGQAPRLLIYDASNRATGIPARFSGSGSGTDFTLTISSLEPEDFAVYYCQQVSLLPPTFGGGTKVEIK"
32.1,55.6,"Antibody 35 (antibody, V domains shown, Tested as IgG detected with anti-human IgG Fc, compared with an IgG1 isotype control; also called antibody clone number 35; clone 35) VH: QVQLVQSGAEVKKPGSSVKVSCKASGGTFSSAAISWVRQAPGQGLEWMGNIIPIVGIANYAQKFQGRVTITADESTSTAYMELSSLRSEDTAVYYCARDTGRGYTRHFWFDPWGQGTLVTVSS VL: DIQMTQSPSSLSASVGDRVTITCRASQSISSYLNWYQQKPGKAPKLLIYAASSLQSGVPSRFSGSGSGTDFTLTISSLQPEDFATYYCQQSDILYTFGGGTKVEIK"
37.3,79.4,"Antibody 58 (antibody, V domains shown, Tested as IgG detected with anti-human IgG Fc, compared with an IgG1 isotype control; also called antibody clone number 58; clone 58) VH: EVQLVESGGGLVQPGRSLRLSCTASGFTFGDYAMSWFRQAPGKGLEWVGFIGSKFYGGETEYTASVKGRFTISRDGSKSIAYLQMNSLKTEDTAVYYCARGPRRYTYGMDVWGQGTTVTVSS VL: DIQMTQSPSSLSASVGDRVTITCRASQSISSYLNWYQQKPGKAPKLLIYAASSLQSGVPSRFSGSGSGTDFTLTISSLQPEDFATYYCQQSSTPLTFGGGTKVEIK"
55.7,–,"Antibody 10 (antibody, V domains shown, Tested as IgG detected with anti-human IgG Fc, compared with an IgG1 isotype control; also called antibody clone number 10; clone 10) VH: EVQLVESGGGLVQPGRSLRLSCAASGFTFDDYAVHWVRQAPGKGLEWVSGISWSSGLIGYADSVKGRFTISRDNAKNSLYLQMNSLRAEDTAVYYCAKGPPTYQDYFDLWGRGTLVTVSS VL: EIVLTQSPATLSLSPGERATLSCRASQSVSRYLAWYQQKPGQAPRLLIYDASNRATGIPARFSGSGSGTDFTLTISSLEPEDFAVYYCQQVSFFPPITFGGGTKVEIK"
53.2,–,"Antibody 15 (antibody, V domains shown, Tested as IgG detected with anti-human IgG Fc, compared with an IgG1 isotype control; also called antibody clone number 15; clone 15) VH: EVQLVESGGGLVQPGRSLRLSCTASGFTFGDVAMSWFRQAPGKGLEWVGYIGSKAYGGETEYTASVKGRFTISRDGSKSIAYLQMNSLKTEDTAVYYCARAGHSYGSIASNWFDPWGQGTLVTVSS VL: DIQMTQSPSSLSASVGDRVTITCRASQSISSYLNWYQQKPGKAPKLLIYGASSLQSGVPSRFSGSGSGTDFTLTISSLQPEDFATYYCQQGFYTPWTFGGGTKVEIK"

# Further lines, the binder ahead of its results:
Binder,Jurkat-CD112R over-expressed (OE) gMFI (fold increase over isotype) [1] [fold],293T-mouse CD112R gMFI (fold increase over isotype) [2] [fold]
"Antibody 32 (antibody, V domains shown, Tested as IgG detected with anti-human IgG Fc, compared with an IgG1 isotype control; Parent of antibodies 33, 34, 35 and 36; also called antibody clone number 32; parent clone 32) VH: QVQLVQSGAEVKKPGSSVKVSCKASGGTFSSYAISWVRQAPGQGLEWMGGIIPISGTANYAQKFQGRVTITADESTSTAYMELSSLRSEDTAVYYCARDTGRGYTRHFWFDPWGQGTLVTVSS VL: DIQMTQSPSSLSASVGDRVTITCRASQSISSYLNWYQQKPGKAPKLLIYAASSLQSGVPSRFSGSGSGTDFTLTISSLQPEDFATYYCQQSDILYTFGGGTKVEIK",27.9,14.9
"Antibody 46 (antibody, V domains shown, also called antibody clone number 46; clone 46) VH: EVQLVESGGGLVQPGRSLRLSCTASGFTFGDYAMSWFRQAPGKGLEWVGFIGSKAYGGTTEYTASVKGRFTISRDGSKSIAYLQMNSLKTEDTAVYYCARGPRRYTYGMDVWGQGTTVTVSS VL: DIQMTQSPSSLSASVGDRVTITCRASQSISSYLNWYQQKPGKAPKLLIYAASSLQSGVPSRFSGSGSGTDFTLTISSLQPEDFATYYCQQSSTPLTFGGGTKVEIK",23.8,74.8
"Antibody 36 (antibody, V domains shown, Tested as IgG detected with anti-human IgG Fc, compared with an IgG1 isotype control; also called antibody clone number 36; clone 36) VH: QVQLVQSGAEVKKPGSSVKVSCKASGGTFATYAISWVRQAPGQGLEWMGGIFPLSGTANYAQKFQGRVTITADESTSTAYMELSSLRSEDTAVYYCARDTGRGYTRHFWFDPWGQGTLVTVSS VL: DIQMTQSPSSLSASVGDRVTITCRASQSISSYLNWYQQKPGKAPKLLIYAASSLQSGVPSRFSGSGSGTDFTLTISSLQPEDFATYYCQQSDILYTFGGGTKVEIK",31,76.3
"Antibody 34 (antibody, V domains shown, Tested as IgG detected with anti-human IgG Fc, compared with an IgG1 isotype control; also called antibody clone number 34; clone 34) VH: QVQLVQSGAEVKKPGSSVKVSCKASGGTFSSAAISWVRQAPGQGLEWMGGIFPISGHANYAQKFQGRVTITADESTSTAYMELSSLRSEDTAVYYCARDTGRGYTRHFWFDPWGQGTLVTVSS VL: DIQMTQSPSSLSASVGDRVTITCRASQSISSYLNWYQQKPGKAPKLLIYAASSLQSGVPSRFSGSGSGTDFTLTISSLQPEDFATYYCQQSDILYTFGGGTKVEIK",33.8,72.2
"Antibody 33 (antibody, V domains shown, Tested as IgG detected with anti-human IgG Fc, compared with an IgG1 isotype control; also called antibody clone number 33; clone 33) VH: QVQLVQSGAEVKKPGSSVKVSCKASGGTFGNYAISWVRQAPGQGLEWMGGIIPIPGIANYAQKFQGRVTITADESTSTAYMELSSLRSEDTAVYYCARDTGRGYTRHFWFDPWGQGTLVTVSS VL: DIQMTQSPSSLSASVGDRVTITCRASQSISSYLNWYQQKPGKAPKLLIYAASSLQSGVPSRFSGSGSGTDFTLTISSLQPEDFATYYCQQSDILYTFGGGTKVEIK",34.2,73.3
"Antibody 44 (antibody, V domains shown, Tested as IgG detected with anti-human IgG Fc, compared with an IgG1 isotype control; also called antibody clone number 44; clone 44) VH: QVQLVQSGAEVKKPGSSVKVSCKASGGTFDNYYISWVRQAPGQGLEWMGGIFPIFGTANYAQKFQGRVTITADESTSTAYMELSSLRSEDTAVYYCAREVGHYSGSPYYMDVWGKGTTVTVSS VL: DIQMTQSPSTLSASVGDRVTITCRASQSINSWLAWYQQKPGKAPKLLISDASSLESGVPSRFSGSGSGTEFTLTISSLQPDDFATYYCQQVGPYLTFGGGTKVEIK",46.9,–
"Antibody 2 (antibody, V domains shown, Tested as IgG detected with anti-human IgG Fc, compared with an IgG1 isotype control; also called antibody clone number 2; clone 2) VH: EVQLVESGGGLVKPGGSLRLSCAASGFTFSEYTMNWVRQAPGKGLEWVSAIVGSGDSTYYADSVKGRFTISRDNSKNTLYLQMNSLRAEDTAVYYCAKDYSSGDWIDYGMDVWGQGTTVTVSS VL: DIQMTQSPSSLSASVGDRVTITCQASQDISNYLNWYQQKPGKAPKLLIYDASNLATGVPSRFSGSGSGTDFTFTISSLQPEDIATYYCQQFDLLPPTFGGGTKVEIK",63.9,–
"Antibody 5 (antibody, V domains shown, Tested as IgG detected with anti-human IgG Fc, compared with an IgG1 isotype control; also called antibody clone number 5; clone 5) VH: EVQLLESGGGLVQPGGSLRLSCAASGFTFSDYAMIWVRQAPGKGLEWVSAISGGGESTYYADSVKGRFTISRDNSKNTLYLQMNSLRAEDTAVYYCAKDYSSGDWIDYGMDVWGQGTTVTVSS VL: DIQMTQSPSSLSASVGDRVTITCQASQDISNYLNWYQQKPGKAPKLLIYDASNLATGVPSRFSGSGSGTDFTFTISSLQPEDIATYYCQQFDLLPPTFGGGTKVEIK",63.3,–

# From patent US20200040081A1 (SURFACE ONCOLOGY, published 2020)
